102 substances from the supplement of paper PMC12042874 can be followed below.

± gives the uncertainty stated by the source.

The data set can be described thus: amyloid nucleation score (Sup35N fusion, yeast selection) (log enrichment); library NNK1; higher = more nucleation; inactive = no reads after selection. The essentials:
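Peptides of 20 random codons, each fused to Sup35N, were expressed in psi-negative yeast. Cells were induced with 100 μM copper sulfate for 24 hours and grown 7 days at 30°C on medium lacking adenine and uracil, and plasmid inserts before and after selection were Illumina-sequenced. Nucleation scores are DiMSum log enrichments of output over input reads, centred on the mode score of non-aggregating sequences, and sequences under 100 input reads were excluded.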

Regarding GGYGCDGCLSNCMRLNGVWV, the amyloid nucleation score result was “inactive”.

Substance RNSIVGCGYDVGTHVSDLGP came in with an amyloid nucleation score of -0.035 ± 0.41. With NSLMFRPWTLGDF the figure was -0.434 ± 1.7. With VQWLHDMLVHFN the figure was -0.022 ± 1; with SNCFGSSIGNYFRYMFVAYW, 1.86 ± 0.47. SVLLKWMSYTKH came in with an amyloid nucleation score of 2.66 ± 0.15.

On to PPLAYWVYPMVRTLFEGRVP, for which the amyloid nucleation score came to 0.754 ± 0.45. As for RSRVSIRSHSDRRGRVKRVV, the figure is 1.15 ± 0.65; as for NYETPGRFDKSVSTGEAFQS, -0.868 ± 0.55; as for WFVGGTWQGAMNKGPTFVN, 0.078 ± 0.56. With AFMSRVGLHW the figure was 0.691 ± 0.25; with WAVRIVHMRVFFGLPVDW, -0.697 ± 0.58; with NNLFYEIRM, 1.92 ± 0.17. As for FFHSAYCFCNNLPMGLDLWS, the amyloid nucleation score worked out at 5.81 ± 0.083. With YEMVRGCLNMSMMTDKFRAE the figure was 0.851 ± 0.67; with ILDHT, 0.267 ± 0.33. With TYNYFCGLVIVVVNGVHLRV the figure was 5.507 ± 0.047; with GFSRYSPRSKFFNSLVLKSS, -0.171 ± 1.1. With SLVLSYRVASNIKNPMTLDY the figure was 1.24 ± 0.15; with LAWVGVLW, -0.219 ± 1.1. In the case of GCKSGDGQRVGVLLNQNCTR, the amyloid nucleation score came to 0.863 ± 0.56. With FNAIWVVLRVRNREYKTSVL the figure was 1.03 ± 0.7. As to YRVVLAECTSGYWEDIYSHI, the amyloid nucleation score was 1.75 ± 0.16. With YNMVYQCLIRCVAILFNLGR the figure was -0.321 ± 0.65; with VFVHFVSQWDFEATWT, 0.27 ± 0.71. For the substance EGPMLVCVLVVSTTGIGRGC, the amyloid nucleation score was found to be 1.58 ± 0.59. As to QDRNVSWLYIGSVTGRRVAG, the amyloid nucleation score amounted to 0.488 ± 0.66.

Take RLKLTGFMGLSILERVTLCS: the amyloid nucleation score is -0.396 ± 0.52. Regarding LYLEARGGRVSYHQLFFGER, the amyloid nucleation score is 2.45 ± 0.18.

Take CGMMVSEGSVSCRSLPIYLA: the amyloid nucleation score was 0.275 ± 0.34.

Consider ERGMEVLCNYENKGL, for which the amyloid nucleation score is 0.918 ± 0.6. As for GRLCCRPVWYTISCKLWVNE, the figure is 1.04 ± 0.49. With PIRPWAHYGMANWVQKAF the figure was -0.763 ± 0.52; with SKYDLISRANVLFVSANYRH, 0.511 ± 0.76. With IGITRILFVFFIDTATIKNG the figure was -0.855 ± 0.43.

In the case of MRYLNFLCHCVVVYVVMSAS, the amyloid nucleation score was determined as 2.16 ± 0.57. As for FLTNNLYCTPYF, the figure is 3.19 ± 0.079. GVMPNCKKNLHEPALERFNT had an amyloid nucleation score of -0.413 ± 0.61. DIVDARFTLTGFKFECVR yielded an amyloid nucleation score of 0.297 ± 0.28. Substance SSFRYVCCASRCRETSELLG had an amyloid nucleation score of 0.142 ± 0.5. YWNKITRFFCMLESNVTLHT showed an amyloid nucleation score of 0.207 ± 1.4. Regarding RGICWWLNIHWGKAMDMLGP, the amyloid nucleation score was 0.428 ± 0.97. For the substance ADILWARFLWMSEGIH, the amyloid nucleation score is 0.054 ± 0.23.

In the case of VISSSVWFFATMQDCWVGRQ, the amyloid nucleation score came to 0.509 ± 0.69. On to LTNFNAWR, for which the amyloid nucleation score was 0.098 ± 0.47.

In turn, FGPMLHTLDLCWRGMWIS gave an amyloid nucleation score of -1.56 ± 2.7. With YWWKMLERQTRS the figure was 0.374 ± 0.9; with WNSRTSESC, 2.97 ± 0.15; with NGCVLLMVMVLTVDIAL, 2.78 ± 0.18. Consider NDSNSPIFPGGDHPWCGFDW, for which the amyloid nucleation score turned out to be 0.089 ± 0.88. PCFYSSGDVVMNRGV: the amyloid nucleation score was -0.507 ± 0.26. With SFEKKSVPNSANLGATVLPN the figure was 0.196 ± 0.38. With GDISYVSASLQLFNWVLSCV the figure was 3.97 ± 0.13; with SSQDYAHSIAGLVYGC, -0.137 ± 0.98; with CLKLDNMTRLVTNGTLGSAS, “inactive”. With SDLLCLLVKDIIYFFVYLHS the figure was 1.96 ± 0.53; with IHTVTLNNHSSNGDCSSFNI, -0.453 ± 0.43. In turn, IESEGSWRIHWK returned an amyloid nucleation score of 0.638 ± 0.39. With WPVLFFI the figure was -1.46 ± 1.8; with MSLFNISSHSWLKFTLCVPG, 1.17 ± 0.66. With NICWFGVSRLQKMEGLWTGA the figure was 0.515 ± 0.67.

Take SVFWDLTSDWAKIGVKK: the amyloid nucleation score is -1.03 ± 0.89. With PVGGHMVRLSSMSNSLAFKV the figure was -0.563 ± 0.68. With CYAPSFWTYWCLCSCMVDPN the figure was 5.8 ± 0.081; with EITFPRAMWANRTTTMDRIM, -0.036 ± 0.4. With YWSQTRFYSMALSRSDSERT the figure was 0.135 ± 0.27. For the substance CQYVFVCRHFFLGKNHEALE, the amyloid nucleation score was -0.462 ± 0.86.

In turn, QRLFRYNPTKSRGLCNNTWA returned an amyloid nucleation score of 0.59 ± 0.22.

In the case of DMLSEIFGSSPNEYAPH, the amyloid nucleation score came to 0.521 ± 0.29. MKVRISEILEILKVSFKNFP registered an amyloid nucleation score of -1.21 ± 1.4. As for QNDVSGKLGNKLSSVCSLRR, the figure is 0.405 ± 0.95; as for ATGSMGQSSSTGDASKLASF, 1.3 ± 0.32; as for SFRCDVD, -0.217 ± 0.55. As to TNILVAYRVISNGSTTPPRR, the amyloid nucleation score came out at 3.56 ± 0.15. With MIPDINIFQIIMVTHKLFRY the figure was 3.71 ± 0.14. The substance SFTWFVTAANYKW came in with an amyloid nucleation score of 1.8 ± 0.35. As for KSLFNYCVFSDGL, the figure is 7.281 ± 0.051.

Substance CMYALT gave an amyloid nucleation score of 0.015 ± 0.39. As for VTRCVAVAFSLGYLVIKCAL, the figure is -0.243 ± 0.76.

ITYTGASR showed an amyloid nucleation score of 0.295 ± 0.57. As for YRIPLARMWMVTLPL, the figure is -0.317 ± 0.8; as for IVNSKCRFWYYINGTVIFFL, 6.331 ± 0.059; as for TRCPV, 0.253 ± 0.66. As for CGKSIEETSLRNPIPGNVLG, the figure is 0.476 ± 0.55; as for SRIYLLSDRSVFLLLYNYYR, -0.167 ± 0.41; as for GRMEGTGNYMVYKDQEGVNG, “inactive”. QGCIVQGAASEIEANLAQLS gave an amyloid nucleation score of 1.08 ± 0.59.

Regarding FDANGVCSSITSCM, the amyloid nucleation score is -0.359 ± 0.53. As to MFGIFM, the amyloid nucleation score was found to be 3.58 ± 0.099.

In the case of WLCTMLYVVVIRGCNVGNLE, the amyloid nucleation score was -0.393 ± 0.65. GMSVNVWMYSSLGVFCLIYV came in with an amyloid nucleation score of -0.107 ± 0.2. As for HFCHFVGLNPVQKRRVVPWG, the amyloid nucleation score entry is “inactive”.

EYICLLTDSCNDTVLFSCPR: the amyloid nucleation score was -0.583 ± 0.83. With YLWMFCYMYREVAIRVNVGG the figure was 0.1 ± 0.34; with ACPDHMRV, 1.33 ± 0.62; with HSTTLPLLWAYILYPAFG, -0.267 ± 0.37.

For the substance SYEMWLEHYMRRQQRRP, the amyloid nucleation score is -0.282 ± 1.7. In turn, YNMREVLSCKF returned an amyloid nucleation score of -0.114 ± 0.59.

As for LCANNFHHVDKTGFAICNIH, the amyloid nucleation score amounted to 3.64 ± 0.051. With KFVYVVVMSMARACRNVPGH the figure was 0.272 ± 0.39; with LNQPWYIRIQANIDFNR, 4.47 ± 0.079.

In turn, PRLARMLLHDGAEYDCELSC yielded an amyloid nucleation score of -0.963 ± 1.2.
